Measurements: PMC2820527

Molecular target: SmTK4-SH2SH2 (tandem SH2-domain of SmTK4 as a fusion protein with the Gal4-BD) (Schistosoma mansoni) (UniProt Q8WPV5)
Test: two-hybrid; beta-Gal liquid assay (ONPG) in AH109, relative binding strength; bait plasmid co-expresses the SmTK3 TK-domain (additional phosphorylation)

SmTK6 prey clone (novel schistosome Src kinase SmTK6, partial, Gal4-AD fusion) (from UniProt C5J9R9 1-565) (domain or fragment)
fold increase of the interaction (β-Gal liquid assay) with the SmTK3 TK-domain against without it: 5 fold
